Legend:
Test in all cases: fluorescence polarization
[1] = biological target: T1, RRM1 analog R27A (Homo sapiens, UniProt Q8IUH3 23-202, R27A;F124A;Y165A)
T1 sequence: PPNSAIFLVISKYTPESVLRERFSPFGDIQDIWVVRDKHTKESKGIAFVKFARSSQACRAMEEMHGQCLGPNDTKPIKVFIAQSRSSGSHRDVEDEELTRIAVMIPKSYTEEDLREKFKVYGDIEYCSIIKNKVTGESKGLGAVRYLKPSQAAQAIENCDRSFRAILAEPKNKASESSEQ

[2] = biological target: T2, RBM45 RRM1-2 WT (Homo sapiens, UniProt Q8IUH3 23-202)
T2 sequence: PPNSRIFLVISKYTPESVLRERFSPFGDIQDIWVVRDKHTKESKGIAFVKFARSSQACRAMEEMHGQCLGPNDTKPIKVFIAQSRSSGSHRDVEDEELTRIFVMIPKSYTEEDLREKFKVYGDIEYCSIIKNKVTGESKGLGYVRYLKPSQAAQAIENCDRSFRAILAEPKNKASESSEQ

[3] = biological target: T3, RRM1 analog F70A (Homo sapiens, UniProt Q8IUH3 23-202, F70A;F124A;Y165A)
T3 sequence: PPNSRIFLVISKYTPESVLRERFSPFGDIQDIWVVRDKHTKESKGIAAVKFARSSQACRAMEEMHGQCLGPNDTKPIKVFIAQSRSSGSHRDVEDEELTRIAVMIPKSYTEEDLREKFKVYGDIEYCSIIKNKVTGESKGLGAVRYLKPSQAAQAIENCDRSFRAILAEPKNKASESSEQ

[4] = biological target: T4, RRM1 analog W55A (Homo sapiens, UniProt Q8IUH3 23-202, W55A;F124A;Y165A)
T4 sequence: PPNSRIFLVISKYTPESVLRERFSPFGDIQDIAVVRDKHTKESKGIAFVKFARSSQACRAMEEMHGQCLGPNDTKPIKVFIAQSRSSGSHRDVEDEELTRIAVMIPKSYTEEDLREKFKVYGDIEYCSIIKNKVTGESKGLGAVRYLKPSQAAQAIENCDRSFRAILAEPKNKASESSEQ

[5] = biological target: T5, RRM2 analog R122A (Homo sapiens, UniProt Q8IUH3 23-202, F29A;F70A;R122A)
T5 sequence: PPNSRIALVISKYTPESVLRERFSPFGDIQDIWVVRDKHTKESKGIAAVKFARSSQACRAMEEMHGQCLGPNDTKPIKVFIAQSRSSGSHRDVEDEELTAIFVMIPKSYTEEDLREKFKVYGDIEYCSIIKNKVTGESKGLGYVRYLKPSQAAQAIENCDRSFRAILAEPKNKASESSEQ

[6] = biological target: T6, RRM1 analog D53A (Homo sapiens, UniProt Q8IUH3 23-202, D53A;F124A;Y165A)
T6 sequence: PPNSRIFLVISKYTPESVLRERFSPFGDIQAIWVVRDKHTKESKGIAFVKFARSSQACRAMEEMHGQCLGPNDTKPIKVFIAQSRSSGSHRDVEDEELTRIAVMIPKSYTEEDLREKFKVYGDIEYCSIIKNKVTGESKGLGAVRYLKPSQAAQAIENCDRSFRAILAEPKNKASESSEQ

[7] = biological target: T7, RRM1 analog F29A (Homo sapiens, UniProt Q8IUH3 23-202, F29A;F124A;Y165A)
T7 sequence: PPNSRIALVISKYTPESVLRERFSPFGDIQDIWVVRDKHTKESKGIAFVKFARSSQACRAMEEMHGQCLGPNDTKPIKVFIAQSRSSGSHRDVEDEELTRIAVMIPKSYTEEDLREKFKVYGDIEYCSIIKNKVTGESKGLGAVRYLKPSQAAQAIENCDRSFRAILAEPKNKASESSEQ

[8] = biological target: T8, RBM45 RRM1-2 quadruple mutant (Homo sapiens, UniProt Q8IUH3 23-202, F29A;F70A;F124A;Y165A)
T8 sequence: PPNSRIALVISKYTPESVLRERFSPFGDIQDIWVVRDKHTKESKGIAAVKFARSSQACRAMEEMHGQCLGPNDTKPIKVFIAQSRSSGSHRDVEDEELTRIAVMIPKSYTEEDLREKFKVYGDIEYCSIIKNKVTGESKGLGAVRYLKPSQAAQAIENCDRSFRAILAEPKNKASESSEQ

Binder: GGACGG (ssRNA) [GGACGG RNA]
- Kd [1]: 14.4 µM
- Kd [2]: 0.457 ± 0.053 µM
- Kd [3]: 16.8 µM
- Kd [4]: 3.54 µM
- Kd [5]: 18.7 µM
- Kd [6]: 1.99 µM
- Kd [7]: 7.38 µM
- binding signal [8]: ~150 fold decrease vs WT

Reference: publication PMC7968997
